# Test results from PMC9614494.
# Molecular target: recombinant 6xHis-GBP (Arabidopsis thaliana) (UniProt Q9LU39)
# Experiment: MST; 6xHis-GBP labelled with RED-NHS 2nd generation as target, with or without GluTR, ligand in 1:1 dilutions from 5 nM to 110 µM; Monolith NT.115, 30°C, 40% LED power, PBS
# Chain of recombinant 6xHis-GBP (Arabidopsis thaliana) (Q9LU39 43-317): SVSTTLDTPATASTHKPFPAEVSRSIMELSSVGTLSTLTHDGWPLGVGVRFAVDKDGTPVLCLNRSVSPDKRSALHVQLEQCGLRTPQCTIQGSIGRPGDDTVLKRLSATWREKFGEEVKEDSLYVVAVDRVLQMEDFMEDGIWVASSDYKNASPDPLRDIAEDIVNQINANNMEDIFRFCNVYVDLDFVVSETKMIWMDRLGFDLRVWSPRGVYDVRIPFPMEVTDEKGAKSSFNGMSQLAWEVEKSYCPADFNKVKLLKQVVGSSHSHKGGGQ
substance,measurement,value
recombinant 6xHis-GluTR (from UniProt P42804 62-543) (enzyme),Kd,42 nM
